# Experimental data: article PMC9930899, “New Insights into rice pyrimidine catabolic enzymes” (Frontiers in Plant Science, 2023)
# B1: OsDHODH (Oryza sativa Japonica Group) (protein)
# chain: DEAKFCGWLFKSTQLVNPLFALLDAEFAHRLAVTAASHGFVPREKRPDPSVLGLEIWGRKFTNPIGLAAGFDKNAEAVEGLLGMGFGFVEVGSVTPLPQEGNPKPRIFRLREHGAVINRCGFNSEGIVVVAKRLGAQHGKRKMEETSSSTSPTTSDVKQGGKAGPGILGVNLGKNKISEDATADYVQGVHTLSQYADYLVINVSSPNTPGLRKLQGRKQLKDLVKKVQAARDEMQWAEDGPPPLLVKIAPDLSKQDLEDIAAVALALRLDGLIISNTTISRPSPADTHPLAQEAGGLSGKPLFDLSTNVLREMYILTRGKIPLIGCGGVSSGEDAYKKIRSGATLVQLYTAFAYGGPALIPRIKAELAECLERDGFKSVQEAVGADFK
# notes: N-terminally truncated, starts at residue 82 (DEAK); N-terminal His-tag, pET15b, E. coli; full length 469 residues
# B2: OsDHP-T1 (Oryza sativa Japonica Group) (protein)
# chain: EFCAAVGGGSGGCGVGGGGGGDGRRILIRGGTVVNAHRVEEADVYVEDGVIVAVRPNIPVGDDHVKVIDATGKYVMPGGIDPHTHLEMEFMGTVTIDDFFSGHAAALAGGTTMHIDFVIPVNGNLTAGLESYKQKAEKSAMDYGFHMAITKWNDDVSREMETMVKEHGINSFKFFMAYKGSLMVTDDLLLQGLQKCKSLGALAMVHAENGDAVAEGQQRMIDLGITGPEGHALSRPPVLEGEATARAIRLAKFVNTPLYVVHVMSIDAMDEIAKAKREGQRVIGEPVVSGLVLDDSWLWDPDFMIASKYVMSPPIREAGHNKALQVALSSGILQLVGTDHCTFNSTQKAFGSDDFRKIPNGVNGIEERMHIIWDSMVETGRISVSDYVRVTSTECAKIFNIYPRKGAILEGSDADIIILNPERSFVMGAHTHHSRSNTNVYEGRKGKGMVEVTISRGRVVWEDGILNVVPGSGRYVRTPPYSYLFDGIEKSDAAYRASLRAPVKRGKAAA
# notes: N-terminal His-tag, pET19b, E. coli; full length 539 residues, 57,989 Da
# B3: Osß-UP (Oryza sativa Japonica Group) (protein)
# chain: MDSSNGERPPQGEDAPAAAAGSIGGYESLHRLLQSNLSPELFKEASRLLLGLNCGRALEAISLPEATSALAKAHNFDVQAFRFDADKEYLRQPRVIRVGLIQNSIAIPTTSHFADQKKAIMEKVKPMIDAAGDAGVNILCLQEAWTMPFAFCTREKRWCEFAEPVDGESTQFLQQLAKKYNMVIVSPILERDVNHGEIVWNTAVVIGNHGNIIGIHRKNHIPRVGDFNESTYYMEGNTGHPVFETAYGKIGVNICYGRHHPLNWLAFGLNGAEIVFNPSATVGELSEPMWPIEARNAAIANSYFVGSINRVGTEVFPNPFTSGDGKPQHADFGHFYGSSHFSAPDASCTPSLSRYRDGLMISDMDLNLCRQIKDKWGFRMTARYDTYASLLSEYLKPDFKPQVIVDPLINKSA
# notes: full length, 413 residues (45,713 Da), N-terminal His-tag, pET15b, E. coli
# Experiments:
# Type in all cases: biochemical, Oryza sativa
# [1] = substrate: CCCCCCCCCCC1=C(C)C(=O)C(OC)=C(OC)C1=O; test: steady-state DHODH activity, Michaelis-Menten fit; details: co-substrate L-dihydroorotate, 30°C
# Text: (§1) steady-state DHODH activity, Michaelis-Menten fit on OsDHODH
# [2] = substrate: O=C1C[C@@H](C(=O)O)NC(=O)N1; test: steady-state DHODH activity, Michaelis-Menten fit; details: co-substrate decylubiquinone, 30°C
# Text: as §1
# [3] = substrate: O=C1CCNC(=O)N1; test: purified protein; details: 0.1 M potassium buffer, pH 8, 1 mg/mL BSA, 37°C
# [4] = substrate: CC(CNC(N)=O)C(=O)O; test: purified protein; details: 25°C
# [5] = substrate: NC(=O)NCCC(=O)O; test: purified protein; details: 25°C
protein,measurement,setting,value
B1,Km,[1],4.56 ± 0.67 µM
same,Km,[2],29.7 ± 3.5 µM
B2,Km,[3],300 ± 40 µM
same,kcat,[3],1.07 ± 0.04 s⁻¹
same,kcat/Km,[3],3550 M⁻¹ s⁻¹
B3,Km,[4],160 ± 20 µM
same,kcat,[4],1.36 ± 0.07 s⁻¹
same,kcat/Km,[4],8500 M⁻¹ s⁻¹
same,Km,[5],140 ± 10 µM
same,kcat,[5],2.54 ± 0.07 s⁻¹
same,kcat/Km,[5],18100 M⁻¹ s⁻¹
